Results as given in patent publication US8017326B2, “Methods of modulating cell death based on the Bit-1/AES regulatory pathway” (Sanford-Burnham Medical Research Institute, priority 2002, dated 2011).

Assays:
Bcl-2 promoter = test: Bcl-2-promoter-luciferase reporter assay in HEK 293 cells; assay type: cell-based, human; conditions: luciferase after 24 hours
Experimental: Bit1 activity was analyzed in the human embryonic kidney cell line, HEK 293. […] Furthermore, HEK 293 cells were transfected with a Bcl-2-promoter-luciferase reporter construct together with increasing amounts of Bit1 expression construct; Bcl-2 transcription was measured by quantifying luciferase […] after 24 hours in culture. In agreement with the CHO cell results, transcription from the Bcl-2 promoter was suppressed in the Bit1-transfected HEK 293 cells (see FIG. 1B). […] In particular, the percentages of annexin V-positive cells (lower right quadrants) are about 1.4% in the control and about 4.7% in the Bit1-transfected cells.

HEK 293T cells = test: Anoikis of attached or detached (poly-HEMA) transfected cells; assay type: cell-based, human
Experimental: The role of Bit1 in the tendency of detached cells to undergo apoptosis (anoikis in the strictest sense) was then examined. HEK 293T cells were transfected with C-terminally myc-tagged (mitochondrial) Bit1 or with empty vector, and the cells were cultured either on tissue-culture plates (attached) or on poly-HEMA (detached) for 48 hours. The number of attached cells (10^6) was the same whether the cells were transfected with Bit1 or vector (assigned as 100% in FIG. 8H).
As is shown in FIG. 8H, Bit1 and control transfected cells had the same level of spontaneous apoptosis when grown attached to a culture dish. In striking contrast, detachment induced a higher level of cell death in the Bit1-transfected cells than in the control cells. Given that the transfection efficiency was about 50-70% in the 293T cells, the nearly 4-fold higher apoptosis level of the Bit1-transfected cells translates into more than 5-fold difference in anoikis sensitivity.

AES = target: T1, AES (Homo sapiens, UniProt Q08117); test: Yeast two-hybrid analysis; assay type: binding; conditions: yeast co-transformed with vectors encoding both Bit1 and AES
T1 construct: expressed in transfected cells; host or cells: yeast strain AH109
T1 sequence (Q08117 1-197): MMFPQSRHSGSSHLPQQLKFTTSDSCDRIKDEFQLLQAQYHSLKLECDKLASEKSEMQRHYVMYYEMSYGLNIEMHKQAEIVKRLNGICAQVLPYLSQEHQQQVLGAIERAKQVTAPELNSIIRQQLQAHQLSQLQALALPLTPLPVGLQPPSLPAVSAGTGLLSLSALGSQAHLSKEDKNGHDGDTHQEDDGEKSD
Experimental: To explore the mechanism whereby Bit1 induces cell death, a yeast-two-hybrid screening assay was performed to search for binding partners for the Bit1 protein. Full-length Bit1 cDNA was fused to the Gal4 DNA-binding domain in the pGBKT7 vector and used as bait; a human fetal brain cDNA expression library fused to the Gal4 transcriptional activation domain was screened in cells expressing the Bit1/GAL4 DNA-binding domain fusion. Approximately one million transformants from the cDNA library were screened, and about 100 clones positive for both nutritional selection and α-galactosidase activity were obtained.
The ability of AES to interact with Bit1 was confirmed in mammalian cells.
Yeast two-hybrid screening was performed as follows. Full length CGI-147 was cloned in-frame with the Gal4 DNA binding domain in vector pGBKT7 and used to screen a yeast two-hybrid library derived from human fetal brain (Clontech). Yeast strain AH109 was co-transformed with PGBKT7-Bit1, pACT-2-AES or both, and growth selected in SD medium -ADE/-His/-Leu/-Trp and assayed for α-galactosidase activity according to the manufacturer's instructions (Clontech).

B1: Bit1: human Bit1 polypeptide of 179 residues (SEQ ID NO:2), pro-apoptotic, expressed in cells by transfection (protein, listed as Homo sapiens)
chain: MPSKSLVMEYLAHPSTLGLAVGVACGMCLGWSLRVCFGMLPKSKTSKTHTDTESEASILGDSGEYKMILVVRNDLKMGKGKVAAQCSHAAVSAYKQIQRRNPEMLKQWEYCGQPKVVVKAPDEETLIALLAHAKMLGLTVSLIQDAGRTQIAPGSQTVLGIGPGPADLIDKVTGHLKLY
transcription from the Bcl-2 promoter (Bcl-2 promoter): suppressed
reduction of the number of surviving cells in detached cultures (HEK 293T cells; C-terminally myc-tagged Bit1, poly-HEMA, 48 hours, 8% in the vector transfection): 30%
apoptosis level of Bit1-transfected cells versus control cells, detached (HEK 293T cells; HEK 293T cells, detached): ~4 fold
difference in anoikis sensitivity (HEK 293T cells; corrected for transfection efficiency of about 50-70%): more than 5 fold
interaction with AES, growth of co-transformed yeast (AES): yeast grew
